Ends that are not written are not given here.
Assays:
[1] = target: T1, insulin-like growth factor 2 receptor (IGF2R) on human hepatic stellate cells LX-2 (human, UniProt P11717 41-2491); assay: flow cytometry, 5-FAM labelled peptide titrated on LX-2 cells, 1 h at 37 C; apparent Kd
T1 construct: Endogenous IGF2R on LX-2 cells; also called LX-2 cells; LX 2 cells
Experimental: (§1) The cells were incubated with 5 FAM labeled peptides at different concentrations for 1 h at 37° C. The labeled cells were detected by flow cytometry, and the apparent Kd value was calculated using GraphPad Prism. […] The result is consistent with the cellular uptake result depicted in FIGS. 7A-7B, 8A-8G, and 9A-9G.

[2] = target: T1, insulin-like growth factor 2 receptor …; assay: flow cytometry, labelled dimeric peptide titrated on LX-2 cells; apparent Kd
Experimental: as §1

[3] = target: T1, insulin-like growth factor 2 receptor …; assay: flow cytometry on LX-2 cells; apparent Kd of the dimer against that of the monomer
Experimental: as §1

T1 sequence (P11717 41-2491 R1619G limits assumed): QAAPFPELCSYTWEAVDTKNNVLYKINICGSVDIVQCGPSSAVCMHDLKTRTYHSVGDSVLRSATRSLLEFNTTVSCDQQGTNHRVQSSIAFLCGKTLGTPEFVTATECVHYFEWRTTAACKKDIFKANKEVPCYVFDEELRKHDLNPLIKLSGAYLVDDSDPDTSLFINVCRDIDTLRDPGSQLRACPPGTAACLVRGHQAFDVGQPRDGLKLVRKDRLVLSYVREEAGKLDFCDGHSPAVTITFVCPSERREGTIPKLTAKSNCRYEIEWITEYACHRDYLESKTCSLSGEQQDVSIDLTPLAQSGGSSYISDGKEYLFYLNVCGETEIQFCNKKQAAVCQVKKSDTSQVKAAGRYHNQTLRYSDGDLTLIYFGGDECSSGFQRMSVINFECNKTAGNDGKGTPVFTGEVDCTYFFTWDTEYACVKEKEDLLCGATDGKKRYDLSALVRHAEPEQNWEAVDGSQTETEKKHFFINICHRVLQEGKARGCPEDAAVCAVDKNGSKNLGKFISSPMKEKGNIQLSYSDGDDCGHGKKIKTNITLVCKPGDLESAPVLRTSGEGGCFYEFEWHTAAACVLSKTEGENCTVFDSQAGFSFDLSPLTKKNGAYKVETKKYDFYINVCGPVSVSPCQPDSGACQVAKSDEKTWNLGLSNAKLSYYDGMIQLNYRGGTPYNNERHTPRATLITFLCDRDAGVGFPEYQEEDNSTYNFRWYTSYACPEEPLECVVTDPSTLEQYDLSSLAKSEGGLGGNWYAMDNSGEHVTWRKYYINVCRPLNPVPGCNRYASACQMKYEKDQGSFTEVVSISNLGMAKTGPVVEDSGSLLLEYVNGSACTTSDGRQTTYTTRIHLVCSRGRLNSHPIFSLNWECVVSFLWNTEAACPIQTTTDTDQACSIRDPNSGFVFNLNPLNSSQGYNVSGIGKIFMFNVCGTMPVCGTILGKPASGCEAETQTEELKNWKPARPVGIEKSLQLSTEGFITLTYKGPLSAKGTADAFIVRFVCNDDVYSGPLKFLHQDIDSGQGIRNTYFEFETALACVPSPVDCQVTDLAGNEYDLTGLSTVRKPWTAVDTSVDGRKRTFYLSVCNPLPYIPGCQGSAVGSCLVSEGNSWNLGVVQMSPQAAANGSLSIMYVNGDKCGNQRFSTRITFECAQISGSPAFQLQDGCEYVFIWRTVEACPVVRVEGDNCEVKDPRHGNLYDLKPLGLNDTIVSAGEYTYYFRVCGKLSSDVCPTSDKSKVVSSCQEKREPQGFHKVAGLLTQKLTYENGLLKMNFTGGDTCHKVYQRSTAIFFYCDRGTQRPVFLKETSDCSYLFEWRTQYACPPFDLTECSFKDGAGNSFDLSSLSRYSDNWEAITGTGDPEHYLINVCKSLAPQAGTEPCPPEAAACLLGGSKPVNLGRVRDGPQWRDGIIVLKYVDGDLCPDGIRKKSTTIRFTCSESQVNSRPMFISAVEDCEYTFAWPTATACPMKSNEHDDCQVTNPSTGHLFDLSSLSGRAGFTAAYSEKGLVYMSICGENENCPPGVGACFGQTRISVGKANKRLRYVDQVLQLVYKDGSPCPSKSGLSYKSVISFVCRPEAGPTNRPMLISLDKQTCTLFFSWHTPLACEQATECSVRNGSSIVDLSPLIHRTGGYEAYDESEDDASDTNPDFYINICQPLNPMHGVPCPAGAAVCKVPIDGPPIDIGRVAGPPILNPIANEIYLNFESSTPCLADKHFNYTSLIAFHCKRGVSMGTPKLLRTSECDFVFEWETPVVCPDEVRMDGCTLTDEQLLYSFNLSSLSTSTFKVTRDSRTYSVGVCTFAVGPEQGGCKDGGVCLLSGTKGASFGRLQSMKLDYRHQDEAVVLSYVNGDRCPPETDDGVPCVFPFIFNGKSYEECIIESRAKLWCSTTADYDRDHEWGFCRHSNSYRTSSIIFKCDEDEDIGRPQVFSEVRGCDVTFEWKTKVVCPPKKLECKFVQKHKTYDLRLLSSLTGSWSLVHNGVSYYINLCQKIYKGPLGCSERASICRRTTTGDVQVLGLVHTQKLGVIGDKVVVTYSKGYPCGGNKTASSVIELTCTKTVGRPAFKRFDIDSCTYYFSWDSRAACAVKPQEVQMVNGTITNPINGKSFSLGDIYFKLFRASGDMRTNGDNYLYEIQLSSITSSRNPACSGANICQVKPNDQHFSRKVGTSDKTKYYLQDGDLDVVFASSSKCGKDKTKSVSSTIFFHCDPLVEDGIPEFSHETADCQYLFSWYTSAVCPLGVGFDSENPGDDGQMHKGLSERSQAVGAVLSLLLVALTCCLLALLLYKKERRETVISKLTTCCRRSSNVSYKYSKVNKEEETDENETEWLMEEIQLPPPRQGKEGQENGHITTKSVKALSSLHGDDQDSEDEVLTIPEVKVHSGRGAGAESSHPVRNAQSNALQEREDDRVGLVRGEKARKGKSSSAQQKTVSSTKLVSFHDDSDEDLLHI

Question: VHWDFRQWWQPS (also: 5-FAM label, position not given here) [Peptide-431] was tested. Which Kd [1] did it give?
Answer: Its Kd is 6.19 µM.

B1: dimeric peptide 431 (peptide)
peptide: VHWDFRQWWQPS
modifications: also: dimer: two copies linked via a lysine, imaging agent coupled to the linker
Question: Which results are given for B1?
Answer: Kd [2]: 0.701 µM; fold lower apparent Kd against monomeric peptide 431 [3]: ~9 fold

— US20170101442A1 (CURATORS OF THE UNIVERSITY OF MISSOURI, published 2017)
